# Measurements as given in the supplement of paper PMC10567573.
# B1: TMEM175 (parent)
# chain: QTSAFARQPRDELERVRVSCTIIF
# Variants of: B1
# Experiment: protein stability index of a GFP-peptide fusion (GPS, HEK-293T) (PSI 1-6); higher = more stable
# Settings: c terminus: a fixed tail appended
# 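Also: lentivirally expressed fusions sorted by FACS into six bins by GFP to DsRed ratio, PSI derived from sequencing read proportions per bin multiplied by bin number.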
row,Variant,protein stability index
1,QTSAFARQPRDELFRVRVSCTIIF [E14F],3.09
2,QTSAFARQPRDELPRVRVSCTIIF [E14P],3.5
3,QTSAFARQPRDELARVRVSCTIIF [E14A],1.67
4,QTSAFARQPRDELNRVRVSCTIIF [E14N],1.1
5,QTSAFARQPRDELDRVRVSCTIIF [E14D],1.84
6,STSAFARQPRDELERVRVSCTIIF [Q1S],2.17
7,YTSAFARQPRDELERVRVSCTIIF [Q1Y],3.11
8,GTSAFARQPRDELERVRVSCTIIF [Q1G],3.41
9,HTSAFARQPRDELERVRVSCTIIF [Q1H],1.6
10,MTSAFARQPRDELERVRVSCTIIF [Q1M],1.64
11,KTSAFARQPRDELERVRVSCTIIF [Q1K],2.24
12,PTSAFARQPRDELERVRVSCTIIF [Q1P],2.32
13,NTSAFARQPRDELERVRVSCTIIF [Q1N],3.4
14,LTSAFARQPRDELERVRVSCTIIF [Q1L],1.38
15,QTSAHARQPRDELERVRVSCTIIF [F5H],1.48
16,QTSAKARQPRDELERVRVSCTIIF [F5K],1.34
17,QTSASARQPRDELERVRVSCTIIF [F5S],1.94
18,QTSACARQPRDELERVRVSCTIIF [F5C],4.13
19,QTSAMARQPRDELERVRVSCTIIF [F5M],2.25
20,QTSARARQPRDELERVRVSCTIIF [F5R],1.38
21,QTSAPARQPRDELERVRVSCTIIF [F5P],2.48
22,QTSAIARQPRDELERVRVSCTIIF [F5I],1.72
23,QTSAYARQPRDELERVRVSCTIIF [F5Y],2.54
24,QTSATARQPRDELERVRVSCTIIF [F5T],2.01

row,Variant,protein stability index
1,QTSADARQPRDELERVRVSCTIIF [F5D],1.69
2,QTSAQARQPRDELERVRVSCTIIF [F5Q],2.27
3,QTSAEARQPRDELERVRVSCTIIF [F5E],1.91
4,QTSAVARQPRDELERVRVSCTIIF [F5V],2.15
5,QTSANARQPRDELERVRVSCTIIF [F5N],1.65
6,QTSALARQPRDELERVRVSCTIIF [F5L],1.9
7,QTSAAARQPRDELERVRVSCTIIF [F5A],1.75
8,QTSAFARQPRDCLERVRVSCTIIF [E12C],2.24
9,QTSAFARQPRDFLERVRVSCTIIF [E12F],1.76
10,QTSAFARQPRDYLERVRVSCTIIF [E12Y],2.81
11,QTSAFARQPRDDLERVRVSCTIIF [E12D],2.16
12,QTSAFARQPRDILERVRVSCTIIF [E12I],2.56
13,QTSAFARQPRDKLERVRVSCTIIF [E12K],2.07
14,QTSAFARQPRDSLERVRVSCTIIF [E12S],2.72
15,QTSAFARQPRDQLERVRVSCTIIF [E12Q],1.9
16,QTSAFARQPRDHLERVRVSCTIIF [E12H],2.73
17,QTSAFARQPRDMLERVRVSCTIIF [E12M],1.89
18,QTSAFARQPRDALERVRVSCTIIF [E12A],3.94
19,QTSAFARQPRDTLERVRVSCTIIF [E12T],2.95
20,QTSAFARQPRDWLERVRVSCTIIF [E12W],1.9
21,QTSAFARQPRDECERVRVSCTIIF [L13C],3.23
22,QTSAFARQPRDEGERVRVSCTIIF [L13G],1.59
23,QTSAFARQPRDEPERVRVSCTIIF [L13P],2.37
24,QTSAFARQPRDENERVRVSCTIIF [L13N],1.55

row,Variant,protein stability index
1,QTSAFARQPRDEDERVRVSCTIIF [L13D],1.3
2,QTSAFARQPRDEQERVRVSCTIIF [L13Q],1.27
3,QTSAFARQPRDEEERVRVSCTIIF [L13E],1.83
4,QTSAFARQPRDEVERVRVSCTIIF [L13V],2.53
5,QTSAFARQPRDEMERVRVSCTIIF [L13M],2.23
6,QTSAFARQPRDEKERVRVSCTIIF [L13K],1.64
7,QTSAFARQPRDEYERVRVSCTIIF [L13Y],4.09
8,QTSAFARQPRDEWERVRVSCTIIF [L13W],2.89
9,QTSAFARQPRDERERVRVSCTIIF [L13R],2.76
10,QTSAFARQPRDEFERVRVSCTIIF [L13F],3.31
11,QTSAFARQPRDESERVRVSCTIIF [L13S],2
12,QTSAFARQPRDEIERVRVSCTIIF [L13I],1.54
13,QTSAFARQPRDETERVRVSCTIIF [L13T],1.99
14,QTSAFARQPWDELERVRVSCTIIF [R10W],3.68
15,QTSAFARQPPDELERVRVSCTIIF [R10P],2.87
16,QTSAFARQPIDELERVRVSCTIIF [R10I],2.06
17,QTSAFARQPHDELERVRVSCTIIF [R10H],2.4
18,QTSAFARQPSDELERVRVSCTIIF [R10S],2.4
19,QTSAFARQPYDELERVRVSCTIIF [R10Y],2.65
20,QTSAFARQPVDELERVRVSCTIIF [R10V],2.03
21,QTSAFARQPNDELERVRVSCTIIF [R10N],2.57
22,QTSAFARQPEDELERVRVSCTIIF [R10E],2.31
23,QTSAFARQPQDELERVRVSCTIIF [R10Q],3.27
24,QTSAFARQPKDELERVRVSCTIIF [R10K],3.68

row,Variant,protein stability index
1,QTSAFARQPADELERVRVSCTIIF [R10A],2.28
2,QTSAFARQPDDELERVRVSCTIIF [R10D],2.48
3,QTSAFARQPTDELERVRVSCTIIF [R10T],2.48
4,QTSAFARQPCDELERVRVSCTIIF [R10C],2.79
5,QTSAFARQPMDELERVRVSCTIIF [R10M],2.35
6,QTSAFARQWRDELERVRVSCTIIF [P9W],2.31
7,QTSAFARQGRDELERVRVSCTIIF [P9G],2.81
8,QTSAFARQLRDELERVRVSCTIIF [P9L],2.43
9,QTSAFARQFRDELERVRVSCTIIF [P9F],2.38
10,QTSAFARQHRDELERVRVSCTIIF [P9H],2.88
11,QTSAFARQNRDELERVRVSCTIIF [P9N],2.67
12,QTSAFARQRRDELERVRVSCTIIF [P9R],1.91
13,QTSAFARQTRDELERVRVSCTIIF [P9T],2.67
14,QTSAFARQKRDELERVRVSCTIIF [P9K],1.03
15,QTSAFARQERDELERVRVSCTIIF [P9E],3.41
16,QTSAFARQQRDELERVRVSCTIIF [P9Q],1.71
17,QTSAFARQVRDELERVRVSCTIIF [P9V],3.32
18,QTSAFARQIRDELERVRVSCTIIF [P9I],2.44
19,QTSAFARQYRDELERVRVSCTIIF [P9Y],2.83
20,QTSAFARQSRDELERVRVSCTIIF [P9S],1.15
21,QTSAFARQDRDELERVRVSCTIIF [P9D],2.03
22,QTHAFARQPRDELERVRVSCTIIF [S3H],1.69
